The results in this text go back to paper PMC7511963 (NPJ Vaccines, 2020).

Assay [1] deals with HPV16 L1L2 pseudovirus (human papillomavirus type 16) (UniProt P03101).
Assay [2] concerns the target T1, HPV16 L1L2 pseudovirus (Human papillomavirus type 16, L1 …).
T1 construct: also called HPV16 PsV; HPV16 PsVs; copies: 360 +
T1 chain: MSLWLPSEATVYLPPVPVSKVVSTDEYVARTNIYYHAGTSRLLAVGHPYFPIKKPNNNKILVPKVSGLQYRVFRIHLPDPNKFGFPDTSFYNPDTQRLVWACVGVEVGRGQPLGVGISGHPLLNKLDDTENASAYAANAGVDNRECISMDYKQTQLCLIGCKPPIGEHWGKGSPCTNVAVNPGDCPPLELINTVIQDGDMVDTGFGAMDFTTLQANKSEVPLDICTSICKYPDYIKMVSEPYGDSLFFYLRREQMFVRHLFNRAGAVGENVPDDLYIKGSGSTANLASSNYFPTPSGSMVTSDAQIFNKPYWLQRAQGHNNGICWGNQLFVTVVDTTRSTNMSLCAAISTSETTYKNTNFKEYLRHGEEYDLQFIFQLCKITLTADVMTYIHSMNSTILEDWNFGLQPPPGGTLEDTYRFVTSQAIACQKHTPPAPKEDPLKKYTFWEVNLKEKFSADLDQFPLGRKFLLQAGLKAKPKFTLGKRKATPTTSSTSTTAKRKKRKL
Nature of the assay: cryo-EM structure. The following applies: both partners purified.

B1: rabbit monoclonal antibody H16.001 (antibody, V domains shown)
VH: QSVKESEGRLVTPGTPLTLTCTASGFTMSRYHMTWVRQAPGKGLEWIGIIYARNSDTYYANWAKGRFTISKTSTTVDLKITSPTIEDTATYFCARVDSDSSGAFDRLDLWGQGTLVTVSS
VL: DPMLTQTAASVEVAVGGTVTIKCQASQSIGGYLSWYQQKPGQRPKLLIYRASTLASGVPSRFKGSGSGTEYTLTFSGVECADAAAYYCQQGYTSSDINNAFGGGTEVVVK
Take B1: the PsV-based neutralization assay on 293FT cells: IC50, the antibody concentration required to block viral entry by 50% in assay [1] is 0.4 ng/mL.

B2: H16.001 Fab (Fab, V domains shown)
VH: B1 VH
VL: B1 VL
notes: also called Fab H16.001; H16.001 Fabs
The term stoichiometry N denotes a count of units in the complex or per binding partner. For the molecule B2, the “stoichiometry N” value in assay [2] was found to be 360 Fabs per capsid.
